Here are results for two molecules from patent US5493008A, “Two non-contiguous regions contribute to nidogen binding to a single EGF-like motif of the laminin γ1 chain” (The University Of Virginia Patent Foundation, priority 1994, dated 1996).

One assay addresses T1, nidogen (Mus musculus, UniProt P10493).
T1 sequence (P10493 29-1245): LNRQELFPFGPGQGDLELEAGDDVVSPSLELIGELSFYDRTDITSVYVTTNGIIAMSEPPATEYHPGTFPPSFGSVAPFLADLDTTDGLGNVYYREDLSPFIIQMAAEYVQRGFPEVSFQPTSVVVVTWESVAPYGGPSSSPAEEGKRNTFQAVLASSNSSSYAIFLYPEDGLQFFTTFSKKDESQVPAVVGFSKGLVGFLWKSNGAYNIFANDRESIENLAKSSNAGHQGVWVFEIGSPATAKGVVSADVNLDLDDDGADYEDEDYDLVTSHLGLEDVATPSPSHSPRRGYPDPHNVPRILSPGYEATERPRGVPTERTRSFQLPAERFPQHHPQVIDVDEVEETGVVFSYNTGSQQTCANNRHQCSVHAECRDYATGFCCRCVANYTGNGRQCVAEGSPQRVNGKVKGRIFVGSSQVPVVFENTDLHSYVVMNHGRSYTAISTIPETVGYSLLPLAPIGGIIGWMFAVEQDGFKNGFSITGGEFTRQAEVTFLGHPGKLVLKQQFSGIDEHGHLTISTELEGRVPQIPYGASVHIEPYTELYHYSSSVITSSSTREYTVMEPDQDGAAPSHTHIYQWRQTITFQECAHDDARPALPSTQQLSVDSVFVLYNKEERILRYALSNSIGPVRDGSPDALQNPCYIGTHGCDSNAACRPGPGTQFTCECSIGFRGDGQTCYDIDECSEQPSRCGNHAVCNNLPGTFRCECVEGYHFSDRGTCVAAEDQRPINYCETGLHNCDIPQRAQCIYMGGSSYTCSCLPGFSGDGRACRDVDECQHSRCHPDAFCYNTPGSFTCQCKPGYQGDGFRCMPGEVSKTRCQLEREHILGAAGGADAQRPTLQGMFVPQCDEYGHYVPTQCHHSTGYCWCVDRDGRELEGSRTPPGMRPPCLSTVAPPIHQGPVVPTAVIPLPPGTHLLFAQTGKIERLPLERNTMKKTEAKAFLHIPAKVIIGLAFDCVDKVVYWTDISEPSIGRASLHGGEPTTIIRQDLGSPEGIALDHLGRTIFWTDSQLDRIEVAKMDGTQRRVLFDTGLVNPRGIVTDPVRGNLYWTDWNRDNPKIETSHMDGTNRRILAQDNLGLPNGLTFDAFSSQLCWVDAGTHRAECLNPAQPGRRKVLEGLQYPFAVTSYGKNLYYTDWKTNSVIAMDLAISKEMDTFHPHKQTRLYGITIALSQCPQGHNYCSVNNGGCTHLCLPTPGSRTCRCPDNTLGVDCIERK
The following applies: Fox et al. 1991; read-out: κD of the high affinity binding site for nidogen; cited from earlier work.

Assay [1] addresses T2, recombinant nidogen (Mus musculus (Mouse), UniProt P10493).
T2 sequence: T1 sequence (P10493 29-1245)
In words: radioligand competition assay, Tyr-acetylated γ1III3-5. As for the experimental part:
(§1) A radioligand competition assay was used for measurement of relative binding affinities (Mann K. et al. (1988), Eur. J. Biochem., 178, 71–80; Fox, J. W. et al. (1991), EMBO J., 10, 3137–3146). A fixed concentration of recombinant nidogen (0.2 nM) was incubated overnight at 4° C. with inhibitors at varying concentrations, followed by the addition of ^125I-labeled laminin fragment P1 (0.01 nM; 10,000–20,000 c.p.m.) for the same incubation period. Bound and non-bound fragment P1 was then separated by antibodies against nidogen.
(Loss of bound radioactivity is the signal in a displacement assay; it reports binding, not function.)

Assay [2] deals with T2, recombinant nidogen. In words: radioligand competition assay: inhibitor varied, 0.2 nM recombinant nidogen, 125I-laminin fragment P1. The procedure:
as §1

“laminin 1: laminin of chain composition α1β1γ1”: in the assay with nidogen, the Kd was 0.5 nM.

B1: γ1III3-5, Tyr acetylation (other)
chain: PCPCPGGSSCAIVPKTKEVVCTHCPTGTAGKRCELCDDGYFGDPLGSNGPVRLCRPCQCNDNIDPNAVGNCNRLTGECLKCIYNTAGFYCDRCKEGFFGNPLAPNPADKCKACACNPYGTVQQQSSCNPVTGQCQCLPHVSGRDCGTCDPGYYNLQSGQGCE
modifications: tyrosine hydroxyl groups acetylated with acetic acid anhydride
In the case of B1, the “fold decrease in binding activity against unmodified γ1III3-5” value with recombinant nidogen [1] was 75 fold. Moreover, the half-maximal inhibitory concentration (IC50) (as a rule, the concentration at which inhibition is half-maximal) with recombinant nidogen [2] was 3 nM.
